Assays:
[1] = biological target: ED-B fibronectin antigen protein (recombinant), bound to CNBr activated sepharose 4B (UniProt P02751); test: ED-B sepharose column, % of total radioactivity bound; Study B3; no-excipient control (PBS); day 0
[2] = biological target: ED-B fibronectin antigen protein (recombinant), bound to CNBr activated sepharose 4B (UniProt P02751); test: ED-B sepharose column, % of total radioactivity bound; Study A; maltose 50 mg/mL; day 3
[3] = biological target: ED-B fibronectin antigen protein (recombinant), bound to CNBr activated sepharose 4B (UniProt P02751); test: ED-B sepharose column, % of total radioactivity bound; Study A; trolox 5 mg/mL; day 0
[4] = biological target: ED-B fibronectin antigen protein (recombinant), bound to CNBr activated sepharose 4B (UniProt P02751); test: ED-B sepharose column, % of total radioactivity bound; Study B3; human serum albumin 10 mg/mL; day 5
[5] = biological target: ED-B fibronectin antigen protein (recombinant), bound to CNBr activated sepharose 4B (UniProt P02751); test: ED-B sepharose column, % of total radioactivity bound; Study A; inositol 50 mg/mL; day 0
[6] = biological target: ED-B fibronectin antigen protein (recombinant), bound to CNBr activated sepharose 4B (UniProt P02751); test: ED-B sepharose column, % of total radioactivity bound; Study B3; inositol 10 mg/mL; day 5
[7] = biological target: ED-B fibronectin antigen protein (recombinant), bound to CNBr activated sepharose 4B (UniProt P02751); test: ED-B sepharose column, % of total radioactivity bound; Study B3; thioglycerol 10 mg/mL; day 2
[8] = biological target: ED-B fibronectin antigen protein (recombinant), bound to CNBr activated sepharose 4B (UniProt P02751); test: ED-B sepharose column, % of total radioactivity bound; Study A; inositol 50 mg/mL; day 3
[9] = biological target: ED-B fibronectin antigen protein (recombinant), bound to CNBr activated sepharose 4B (UniProt P02751); test: ED-B sepharose column, % of total radioactivity bound; Study A; trolox 5 mg/mL; day 3
[10] = biological target: ED-B fibronectin antigen protein (recombinant), bound to CNBr activated sepharose 4B (UniProt P02751); test: ED-B sepharose column, % of total radioactivity bound; Study A; maltose 25 mg/mL; day 0
[11] = biological target: ED-B fibronectin antigen protein (recombinant), bound to CNBr activated sepharose 4B (UniProt P02751); test: ED-B sepharose column, % of total radioactivity bound; Study A; maltose 10 mg/mL; day 3
[12] = biological target: ED-B fibronectin antigen protein (recombinant), bound to CNBr activated sepharose 4B (UniProt P02751); test: ED-B sepharose column, % of total radioactivity bound; Study B3; human serum albumin 10 mg/mL; day 1
[13] = biological target: ED-B fibronectin antigen protein (recombinant), bound to CNBr activated sepharose 4B (UniProt P02751); test: ED-B sepharose column, % of total radioactivity bound; Study A; inositol 25 mg/mL; day 0
[14] = biological target: ED-B fibronectin antigen protein (recombinant), bound to CNBr activated sepharose 4B (UniProt P02751); test: ED-B sepharose column, % of total radioactivity bound; Study A; maltose 50 mg/mL; day 1
[15] = biological target: ED-B fibronectin antigen protein (recombinant), bound to CNBr activated sepharose 4B (UniProt P02751); test: ED-B sepharose column, % of total radioactivity bound; Study A; methionine 25 mg/mL; day 3
[16] = biological target: ED-B fibronectin antigen protein (recombinant), bound to CNBr activated sepharose 4B (UniProt P02751); test: ED-B sepharose column, % of total radioactivity bound; Study A; maltose 25 mg/mL; day 1
[17] = biological target: ED-B fibronectin antigen protein (recombinant), bound to CNBr activated sepharose 4B (UniProt P02751); test: ED-B sepharose column, % of total radioactivity bound; Study B3; ascorbic acid 25 mg/mL; day 3
[18] = biological target: ED-B fibronectin antigen protein (recombinant), bound to CNBr activated sepharose 4B (UniProt P02751); test: ED-B sepharose column, % of total radioactivity bound; Study A; inositol 25 mg/mL; day 1
[19] = biological target: ED-B fibronectin antigen protein (recombinant), bound to CNBr activated sepharose 4B (UniProt P02751); test: ED-B sepharose column, % of total radioactivity bound; Study A; sodium thiosulfate 10 mg/mL; day 5
[20] = biological target: ED-B fibronectin antigen protein (recombinant), bound to CNBr activated sepharose 4B (UniProt P02751); test: ED-B sepharose column, % of total radioactivity bound; Study B3; no-excipient control (PBS); day 3
[21] = biological target: ED-B fibronectin antigen protein (recombinant), bound to CNBr activated sepharose 4B (UniProt P02751); test: ED-B sepharose column, % of total radioactivity bound; Study B3; inositol 10 mg/mL; day 3
[22] = biological target: ED-B fibronectin antigen protein (recombinant), bound to CNBr activated sepharose 4B (UniProt P02751); test: ED-B sepharose column, % of total radioactivity bound; Study A; sodium thiosulfate 25 mg/mL; day 1
[23] = biological target: ED-B fibronectin antigen protein (recombinant), bound to CNBr activated sepharose 4B (UniProt P02751); test: ED-B sepharose column, % of total radioactivity bound; Study A; inositol 10 mg/mL; day 5
[24] = biological target: ED-B fibronectin antigen protein (recombinant), bound to CNBr activated sepharose 4B (UniProt P02751); test: ED-B sepharose column, % of total radioactivity bound; Study A; inositol 50 mg/mL; day 5
[25] = biological target: ED-B fibronectin antigen protein (recombinant), bound to CNBr activated sepharose 4B (UniProt P02751); test: ED-B sepharose column, % of total radioactivity bound; Study B3; thioglycerol 10 mg/mL; day 3
[26] = biological target: ED-B fibronectin antigen protein (recombinant), bound to CNBr activated sepharose 4B (UniProt P02751); test: ED-B sepharose column, % of total radioactivity bound; Study A; no-excipient control (saline); day 1
[27] = biological target: ED-B fibronectin antigen protein (recombinant), bound to CNBr activated sepharose 4B (UniProt P02751); test: ED-B sepharose column, % of total radioactivity bound; Study A; methionine 25 mg/mL; day 0
[28] = biological target: ED-B fibronectin antigen protein (recombinant), bound to CNBr activated sepharose 4B (UniProt P02751); test: ED-B sepharose column, % of total radioactivity bound; Study A; maltose 50 mg/mL; day 0

Sequence of UniProt P02751 (P02751 1266-1356 limits assumed): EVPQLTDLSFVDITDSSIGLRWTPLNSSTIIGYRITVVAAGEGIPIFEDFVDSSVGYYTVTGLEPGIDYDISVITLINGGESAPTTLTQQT
Sequence of 131I L19-SIP (radioiodinated L19 SIP homodimer) (chain): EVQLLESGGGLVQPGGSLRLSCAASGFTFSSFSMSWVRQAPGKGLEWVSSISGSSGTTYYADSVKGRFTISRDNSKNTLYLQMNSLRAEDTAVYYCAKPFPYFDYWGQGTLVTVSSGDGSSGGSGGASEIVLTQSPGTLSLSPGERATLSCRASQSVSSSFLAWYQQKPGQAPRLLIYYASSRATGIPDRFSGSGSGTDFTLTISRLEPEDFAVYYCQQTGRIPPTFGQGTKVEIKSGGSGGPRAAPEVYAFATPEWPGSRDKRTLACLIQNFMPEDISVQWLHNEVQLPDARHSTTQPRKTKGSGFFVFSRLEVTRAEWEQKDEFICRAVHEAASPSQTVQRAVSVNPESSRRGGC
Sequence of 131I L19-SIP (radioiodinated L19 SIP homodimer) (chain): as above

Immunoreactivity (IR) (%) [1]: 74.6% | Immunoreactivity (%) [2]: 66.2% | Immunoreactivity (%) [3]: 94.6% | Immunoreactivity (IR) (%) [4]: 53% | Immunoreactivity (%) [5]: 92.3% | Immunoreactivity (IR) (%) [6]: 61.2% | Immunoreactivity (IR) (%) [7]: 58.4% | Immunoreactivity (%) [8]: 71.6% | Immunoreactivity (%) [9]: 77.6% | Immunoreactivity (%) [10]: 93.6% | Immunoreactivity (%) [11]: 65.2% | Immunoreactivity (IR) (%) [12]: 78% | Immunoreactivity (%) [13]: 94.1% | Immunoreactivity (%) [14]: 85.9% | Immunoreactivity (%) [15]: 79.6% | Immunoreactivity (%) [16]: 86.4% | Immunoreactivity (IR) (%) [17]: 78.7% | Immunoreactivity (%) [18]: 88.7% | Immunoreactivity (%) [19]: 81.3% | Immunoreactivity (IR) (%) [20]: 68.3% | Immunoreactivity (IR) (%) [21]: 74.8% | Immunoreactivity (%) [22]: 95% | Immunoreactivity (%) [23]: 58.9% | Immunoreactivity (%) [24]: 63.7% | Immunoreactivity (IR) (%) [25]: 59.5% | Immunoreactivity (%) [26]: 81.6% | Immunoreactivity (%) [27]: 97.2% | Immunoreactivity (%) [28]: 89.7%
Substance: 131I L19-SIP (radioiodinated L19 SIP homodimer)
